In US20100092460A1 (Ablynx, published 2010):

Experiments:
[1] = target: T1, recombinant human CCL2/MCP1 (human, UniProt P13500 24-99, 125I label in the radioligand assays); assay: inhibition of 125I-CCL2 binding to HCMV-US28 (HEK293T cells), 10x diluted periplasm; ELISA grade at the label
T1 construct: Immunogen and selection antigen was the Mucin stalk Chimera (R&D 979-MC/CF)

CCL5 [2] = target: T2, CCL5 (UniProt P13501 24-91, 125I label); assay: inhibition of 125I-CCL5 (56 pM) binding to CCR1 on HEK293T cells; radioligand preincubated with purified Nanobody
T2 construct: also called RANTES
T2 sequence (looked up): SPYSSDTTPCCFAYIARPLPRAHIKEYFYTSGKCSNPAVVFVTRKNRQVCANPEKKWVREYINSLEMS

[3] = target: T3, recombinant human CXCL11/I-TAC (human, UniProt O14625 22-94, biotinylated in the ELISA; 125I label in the radioligand assays); assay: inhibition of 125I-CXCL11 binding to hCXCR3 (HEK293T cells), 10x diluted periplasm; ELISA grade at the label
T3 sequence (looked up): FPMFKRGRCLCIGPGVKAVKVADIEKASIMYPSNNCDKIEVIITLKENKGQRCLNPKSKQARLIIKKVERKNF

[4] = target: T3, recombinant human CXCL11/I-TAC; assay: ELISA, Nanobody captured by coated anti-myc antibody, biotinylated CXCL11, streptavidin-HRP
[5] = target: T3, recombinant human CXCL11/I-TAC; assay: inhibition of 125I-CXCL11 binding to hCXCR3 (HEK293T cells), 10x diluted periplasm; ELISA grade at the label; remark: listed apart in the source
[6] = target: T3, recombinant human CXCL11/I-TAC; assay: cell-based or functional assay
[7] = target: T3, recombinant human CXCL11/I-TAC; assay: inhibition of 125I-CXCL11 (46 pM) binding to hCXCR3 on HEK293T cells; radioligand preincubated with purified Nanobody
[8] = target: T1, recombinant human CCL2/MCP1; assay: inhibition of 125I-CCL2 (59 pM) binding to HA3-CCR2 on HEK293T cells; radioligand preincubated with purified Nanobody
[9] = target: T1, recombinant human CCL2/MCP1; assay: inhibition of 125I-CCL2 binding to hCCR2 (HEK293T cells), purified Nanobody
[10] = target: T4, recombinant human CCL5/RANTES (Mucin stalk Chimera) (human, UniProt P13501 24-91, biotinylated in the ELISA); assay: ELISA, periplasmic extract on biotinylated mucin-CCL5 on neutravidin, anti-myc detection
T4 construct: also called mucin-CCL5; not shown: mucin stalk of the chimera (R&D 978-RN/CF); origin, limits and order not described
T4 sequence (looked up): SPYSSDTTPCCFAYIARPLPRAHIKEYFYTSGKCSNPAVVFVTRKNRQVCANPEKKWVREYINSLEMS

CCL5 [11] = target: T2, CCL5; assay: inhibition of 125I-CCL5 binding to hCCR1 (HEK293T cells), purified Nanobody

T1 sequence (P13500 24-99 limits assumed): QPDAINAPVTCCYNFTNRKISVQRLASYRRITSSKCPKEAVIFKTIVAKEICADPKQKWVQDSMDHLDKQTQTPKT

B1: Nanobody 8A8 (VHH)
VHH: EVQLVESGGGLVQAGGSLRLSCAASGRTFSSYRMGWFRQAPEKEREFVAVITRSGSDQFYSNSVKGRFTISRDNAKNTVYLQMNSLKPEDTAVYYCAAGAQIGWAEASTYDYWGQGTQVTVSS
notes: llama VHH against CCL2; also called 8D8; 15C7; not shown: C-terminal c-myc tag and (His)6 tag coded by the vector
binding result [1]: binds

B2: Nanobody 15C8 (VHH)
VHH: EVQLVESGGGLVQAGGSLRLSCAASGRTFSSYRMGWFRQAPEKEREFVAVITRSGGSTFYSNSVKGRFTISRDNAKNTVYLQMNSLKPEDTAVYYCAAGAQMGWAEASTYDYWGQGTQVTVSS
notes: llama VHH against CCL2; not shown: C-terminal c-myc tag and (His)6 tag coded by the vector
binding result [1]: binds

B3: Nanobody 8H8 (VHH)
VHH: EMQLVESGGGLVQAGGSLRLSCAASGRTFSSYRMGWFRQAPEKEREFVALINRSGGSQFYSNSVKGRFTISRDNAKNTVYLQMNSLKPEDTAVYYCAAGAQMGWAEASTYDYWGQGTQVTVSS
notes: as for B2
binding result [1]: binds

B4: Nanobody 10C8 (VHH)
VHH: EVQLVESGGGLVQAGDSLRLSCATSGRTFTMDGMGWFRQAPGKEREFVATISRSGVGTFYADSVKGRFTISRDNAKNMVYLQMNSLKPEDTALYYCAARPDYTLGTSSYDYDSWGQGTQVTVSS
notes: llama VHH against CCL5; purified; also called 10D8; 10E9; not shown: C-terminal c-myc tag and (His)6 tag coded by the vector
pIC50 (CCL5 [2]): 9.3

B5: Nanobody 15A8 (VHH)
VHH: EVQLVESGGGLVQAGGSLRLSCAASGFTFDDYAIGWFRQAPGKEREGPLCISSSDGSTYYADSVKGRFTISSDNAKNTVYLQMNSLKPEDTAVYYCAAESLGDYGLASPLPADFGSWGQGTQVTVSS
notes: as for B2
binding result [1]: binds

B6: Nanobody 11F10 (VHH)
VHH: EVQLVESGGGLVQAGGSLRLSCAASGFTLDDYAIGWFRQAPGKEREGVSCISSSDGSTYYADSVKGRFTISSDNAKNTVYLQMNSLKPEDTAVYYCAAGQGVLRLWVLSSSSYDYWGQGTQVTVSS
notes: llama VHH against CXCL11; not shown: C-terminal c-myc tag and (His)6 tag coded by the vector
binding result [3]: binds

B7: Nanobody 38C6 (VHH)
VHH: EVQLVESGGGLVQAGGSLRLSCAASGFTFDDYAIGWFRQAPGKEREGVSCCSSSDGSTYYADSVKGRFTISSDNAKNTVYLQMNSLKPEDTAVYYCAATQGLTIATMWNPVSYDYWGQGTQVTVSS
notes: as for B6
binding result [4]: binds

B8: Nanobody 38G6 (VHH)
VHH: EVQLVESGGGLVQAGGSLRLSCEASGFTFDDYAIGWFRQAPGKEREGVSCCSSSDGSTYYADSVKGRFTISSDNAKNTVYLQMNSLKPEDTAVYYCAATQGLLIATMWNPASYDYWGQGTQVTVSS
notes: as for B6
binding result [4]: binds

B9: Nanobody 11A7 (VHH)
VHH: EVQLVESGGGLVQAGGSLRLSCAASGFTFDDYAIGWFRQAPGKEREGVSIISSSDGSTYYADSVKGRFTISSDNAKNTVYLQMNSLKPEDTAVYYCAAGQGWVIATMTSFRAHREYDYWGQGTQVTVSS
notes: llama VHH against CXCL11; also called 11E10; 11E11; not shown: C-terminal c-myc tag and (His)6 tag coded by the vector
binding result [5]: binds

B10: Nanobody 11B7 (VHH)
VHH: EVQLVESGGGLVQAGGSLRLSCAASGFNFDDYAIGWFRQAPGKEREGVSIISSSDGNTYYADSVKGRFTISSDNAKNTVYLQMNSLKPEDTAVYYCAAGQGWVIATMTSFRAHREYDYWGQGTQVTVSS
notes: llama VHH against CXCL11; purified; not shown: C-terminal c-myc tag and (His)6 tag coded by the vector
inhibition of CXCL11-induced PLC activation (3H-inositol phosphate accumulation, HEK293T cells with CXCR3 and G-alpha-qi5), pIC50 [6]: 7.9
pIC50 [7]: 9.6

B11: Nanobody 11E7 (VHH)
VHH: EVQLVESGGGLVQAGGSLRLSCAASGFTFDDYAIGWFRQAPGKEREGVSIISSSDGTTYYADSVKGRFTISTDNAKNTVYLQMNSLKPEDTAVYYCAAGQGWVIATMTSFRAHREYDYWGQGTQVTVSS
notes: as for B6
binding result [3]: binds

B12: Nanobody 8E3 (VHH)
VHH: EVQLVESGGGLVQAGGSLRLSCAASGGTFSSYRMGWFRQAPGKEREFVTLISRSGGTTDYTDSVKGRFTISRDNAKNTVSLQMNNLKPADTAVYYCAAAGSMGWNHLRDYDYWGQGTQVTVSS
notes: llama VHH against CCL2; purified; not shown: C-terminal c-myc tag and (His)6 tag coded by the vector
pIC50 [8]: 9

B13: Nanobody 11G10 (VHH)
VHH: EVQLVESGGGLVQPGGSLRLSCAASGFTLDDYAIGWFRQAPGKEREGVSSISSSDGRTYYADSVKGRFAISRDNAKNTVYLQMNSLKPEDTAVYYCAADQGVVAYDALRPYRWLEVWGQGTLVTVSS
notes: as for B6
binding result [3]: binds

B14: Nanobody 11D9 (VHH)
VHH: EVQLVESGGGLVQAGGSLRLSCAASGFTFDDYPIGWFRQAPGKEREGISCISSSDGSTYYADSVKGRFTISSDNAKNTVYLQMNSLKPEDTAVYYCAAGLGALVRYYSGSYYCDGMDYWGKGTLVTVSS
notes: as for B6
binding result [3]: binds

B15: Nanobody 11B2 (VHH)
VHH: EVQLVESGGGLVQAGGSLRLSCAASGFTFDDYAMCWFRQAPGKEREGVSCISSSDGSTYYADSVKGRFTISSDNAKNTVYLHMNSLKPEDTAVYYCAAAQGVVAGASLVWVPLDEYDYWGQGTQVTVSS
notes: as for B10
inhibition of CXCL11-induced PLC activation (3H-inositol phosphate accumulation, HEK293T cells with CXCR3 and G-alpha-qi5), pIC50 [6]: 7.6
pIC50 [7]: 9.1

B16: Nanobody 8A3 (VHH)
VHH: EVQLVESGGGLVQAGGSLRLSCVASGLTFSTYSMGWFRQAPGKEREFVAAINGGGSSTTYADSVKGRFTISRDNAKNTVYLQMNSLKPEDTAVYSCAVKMYSGSYSSPPGYNYWGQGTQVTVSS
notes: as for B2
binding result [9]: binds

B17: Nanobody 8E10 (VHH)
VHH: EVQLVESGGGLVQAGDSLRLSCAASGRTFSSYRMGWFRQAPGKEREFVAAISRSGASAYYADSVKGRFTCSRDNAKDTVYLQMNKLKPEDTAVYYCAASSRMGVDDPETYGYWGQGTQVTVSS
notes: as for B12
pIC50 [8]: 8.7

B18: Nanobody 38E6 (VHH)
VHH: EVQLVESGGGLAQPGGSLRLSCAASGFTFSSYAMSWVRQAPGKGLEWVSAINSGGGSTSYADSVKGRFTISRDNAKNTLYLQMNSLKPEDTAVYYCQRGDYEFEPLEYDYWGQGTQVTVSS
notes: as for B6
binding result [4]: binds

B19: Nanobody 17B11 (VHH)
VHH: EVQLVESGGGLVQAGGSLRLSCAASGFNFDDYAIGWFRQAPGKEREGVSCISSSDGSTYSADSVKGRFTISSDNAKNTVYLQMNNLNPEDTAAYYCAAAPPDCTYYPATPIYYWGQGTQVTVSS
notes: llama VHH against CCL5; purified; not shown: C-terminal c-myc tag and (His)6 tag coded by the vector
pIC50 (CCL5 [2]): 9

B20: Nanobody 10A12 (VHH)
VHH: EVQLVESGGGLVQAGGSLRLSCAASGFTFDDYAIGWFRQVPGKERKGVSCISSSDGTTYYEDSVKGRFTISSDNAKNTIYLQMNSLKPEDTAVYYCAAAPPDCTYYPATPIYYWGQGTQVTVSS
notes: as for B19
binding result [10]: binds
binding result (CCL5 [11]): binds

B21: Nanobody 10E8 (VHH)
VHH: EVQLVESGGGLVQAGGSLRLSCAASGRTFSSYYMGWFRQAPGKEREFVARIGWSSGSTYYADSMKGRFTISRDNAKNTVYLQMNSLKPEDTAVYYCAAAPRYTLATVTYDYDYWGQGTQVTVSS
notes: as for B19
binding result [10]: binds
binding result (CCL5 [11]): binds

B22: Nanobody 8D3 (VHH)
VHH: EVQLVESGGGLVQAGGSLRLSCAASGRTFSNYAMGWFRQAPGKEREFVAAISWSDGSTYYADSVKGRFTISRDNAKNTVYLLMNSLNPEDTAVYYCAADLLAEDPAAPSRGYDYWGQGTQVTVSS
notes: as for B2
binding result [9]: binds

B23: Nanobody 11B1 (VHH)
VHH: EVQLVESGGGLVQAGGSLRLSCAASGFTFDDYTIGWFRQAPGKEREGVSCISSSDGSTYYADSVKGRFTISSDNVKNTVYLQMNSLKPEDTAVYYCAASLGFLTAQCMGVMSIGLSEYDYWGQGTQVTVSS
notes: as for B10
inhibition of CXCL11-induced PLC activation (3H-inositol phosphate accumulation, HEK293T cells with CXCR3 and G-alpha-qi5), pIC50 [6]: 7.8
pIC50 [7]: 9.6
